Measured values published in patent US20200325225A1 (Hoffmann-La Roche, published 2020).

Target: T1, murine FAP (murine, UniProt P97321 27-761, limits assumed)
T1 construct: also called mouse FAP; murine FAP (Analyte 2)
Assay: SPR (Biacore T200, 25 C, HBS-EP), simultaneous binding; muFAP-4-1BB held on immobilized murine 4-1BB Fc(kih); murine FAP 500 nM as second analyte, 30 uL/min, 90 s, dissociation 120 s
Protocol: All SPR experiments were performed on a Biacore T200 at 25° C. with HBS-EP as running buffer (0.01 M HEPES pH 7.4, 0.15 M NaCl, 3 mM EDTA, 0.005% Surfactant P20, Biacore, Freiburg/Germany). […] Immobilization levels up to 600 resonance units (RU) were used.
Murine FAP was injected as second analyte with a flow of 30 μL/minute through the flow cells over 90 seconds at a concentration of 500 nM. The dissociation was monitored for 120 sec. Bulk refractive index differences were corrected for by subtracting the response obtained in a reference flow cell, where no protein was immobilized.

T1 sequence (P97321 27-761 limits assumed): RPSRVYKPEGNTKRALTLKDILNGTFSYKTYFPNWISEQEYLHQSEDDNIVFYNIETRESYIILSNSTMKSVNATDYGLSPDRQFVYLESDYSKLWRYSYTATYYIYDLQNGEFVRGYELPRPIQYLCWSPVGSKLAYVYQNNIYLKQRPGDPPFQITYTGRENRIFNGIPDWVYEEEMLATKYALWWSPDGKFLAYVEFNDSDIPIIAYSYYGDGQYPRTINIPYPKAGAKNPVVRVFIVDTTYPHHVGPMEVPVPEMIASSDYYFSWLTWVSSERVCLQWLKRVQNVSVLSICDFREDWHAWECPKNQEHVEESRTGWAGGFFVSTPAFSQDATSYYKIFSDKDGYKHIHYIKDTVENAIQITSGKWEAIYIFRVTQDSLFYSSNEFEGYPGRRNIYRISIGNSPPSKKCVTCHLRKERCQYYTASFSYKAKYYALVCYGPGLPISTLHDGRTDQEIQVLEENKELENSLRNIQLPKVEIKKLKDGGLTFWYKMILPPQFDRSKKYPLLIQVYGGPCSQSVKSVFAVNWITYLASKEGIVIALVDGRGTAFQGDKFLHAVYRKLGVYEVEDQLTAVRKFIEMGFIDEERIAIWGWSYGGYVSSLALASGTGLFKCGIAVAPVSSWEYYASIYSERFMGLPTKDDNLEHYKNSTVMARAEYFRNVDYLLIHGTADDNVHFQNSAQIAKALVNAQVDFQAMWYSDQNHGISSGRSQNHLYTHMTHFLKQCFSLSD

B1: 4-1BB (MU137-1)/FAP(28H1) DAPG IgG1 2+1 (Fc-DD-VL) (bispecific antibody)
heavy 1: DVQLVESGGGLVQPGRSLKLSCAASGFIFSYFDMAWVRQAPTKGLEWVASISPSGDIPYYRDSVKGRFTVSRENAKSSLYLQMDSLRSEDTATYYCARRSYGGYSELDYWGQGVMVTVSSAKTTPPSVYPLAPGSAAQTNSMVTLGCLVKGYFPEPVTVTWNSGSLSSGVHTFPAVLQSDLYTLSSSVTVPSSTWPSQTVTCNVAHPASSTKVDKKIVPRDCGCKPCICTVPEVSSVFIFPPKPKDVLTITLTPKVTCVVVAISKDDPEVQFSWFVDDVEVHTAQTKPREEQINSTFRSVSELPIMHQDWLNGKEFKCRVNSAAFGAPIEKTISKTKGRPKAPQVYTIPPPKEQMAKDKVSLTCMITNFFPEDITVEWQWNGQPAENYDNTQPIMDTDGSYFVYSDLNVQKSNWEAGNTFTCSVLHEGLHNHHTEKSLSHSPGGGGGSGGGGSGGGGSGGGGSEIVLTQSPGTLSLSPGERATLSCRASQSVSRSYLAWYQQKPGQAPRLLIIGASTRATGIPDRFSGSGSGTDFTLTISRLEPEDFAVYYCQQGQVIPPTFGQGTKVEIK
heavy 2: DVQLVESGGGLVQPGRSLKLSCAASGFIFSYFDMAWVRQAPTKGLEWVASISPSGDIPYYRDSVKGRFTVSRENAKSSLYLQMDSLRSEDTATYYCARRSYGGYSELDYWGQGVMVTVSSAKTTPPSVYPLAPGSAAQTNSMVTLGCLVKGYFPEPVTVTWNSGSLSSGVHTFPAVLQSDLYTLSSSVTVPSSTWPSQTVTCNVAHPASSTKVDKKIVPRDCGCKPCICTVPEVSSVFIFPPKPKDVLTITLTPKVTCVVVAISKDDPEVQFSWFVDDVEVHTAQTKPREEQINSTFRSVSELPIMHQDWLNGKEFKCRVNSAAFGAPIEKTISKTKGRPKAPQVYTIPPPKKQMAKDKVSLTCMITNFFPEDITVEWQWNGQPAENYKNTQPIMKTDGSYFVYSKLNVQKSNWEAGNTFTCSVLHEGLHNHHTEKSLSHSPGGGGGSGGGGSGGGGSGGGGSEVQLLESGGGLVQPGGSLRLSCAASGFTFSSHAMSWVRQAPGKGLEWVSAIWASGEQYYADSVKGRFTISRDNSKNTLYLQMNSLRAEDTAVYYCAKGWLGNFDYWGQGTLVTVSS
light: DIQMTQSPASLSASLEEIVTITCQASQDIGNWLAWYHQKPGKSPQLLIYGTSSLADGVPSRFSGSSSGSQYSLKISRLQVEDIGIYYCLQAYGAPWTFGGGTKLELKRADAAPTVSIFPPSSEQLTSGGASVVCFLNNFYPKDINVKWKIDGSERQNGVLNSWTDQDSKDSTYSMSSTLTLTKDEYERHNSYTCEATHKTSTSPIVKSFNRNEC
notes: It is a mouse IgG1 with DAPG (D265A, P329G) and DD/KK heterodimerisation mutations, bivalent for mouse 4-1BB and monovalent for FAP; also called muFAP-4-1BB; mouse surrogate muFAP-4-1BB
B1: binds.
